Where “and” joins values, the source holds several entries; their conditions need not be identical. Equal entries are not always repeated.
B1: H. aurantiacus IPK: Herpetosiphon aurantiacus isopentenyl phosphate kinase, SEQ ID NO: 19, Genbank YP_001545053 (protein, listed as Herpetosiphon aurantiacus)
chain: MNKPIFIKLGGSMLTDKTTAERLVDQTLKQVVTDLSAWRQAHPNQPILLGHGGGSFGHYWAERYQTAQGIINEQSWWGVARVADAMARLNRAVVGACLDADLPAIGIQPMASSLANAGEIQQIGSQPLATLLAAGTIPVIYGDVLLDVAQGCTIASTERIFSALVGPLQPTQIILLGEQAVYDADPRQHADAQPIPLINRTNYATIIARLGGSHGVDVTGGMRNKVEAMWQLVQQAPQLEIWICGPQQLQSALSGQLNGPGTIIKLD
B2: S. cerevisiae MVD: Mevalonate decarboxylase (MVD) from Saccharomyces cerevisiae used as a reference (protein, UniProt P32377 1-396, looked up)
Diphosphomevalonate …: MTVYTASVTAPVNIATLKYWGKRDTKLNLPTNSSISVTLSQDDLRTLTSAATAPEFERDTLWLNGEPHSIDNERTQNCLRDLRQLRKEMESKDASLPTLSQWKLHIVSENNFPTAAGLASSAAGFAALVSAIAKLYQLPQSTSEISRIARKGSGSACRSLFGGYVAWEMGKAEDGHDSMAVQIADSSDWPQMKACVLVVSDIKKDVSSTQGMQLTVATSELFKERIEHVVPKRFEVMRKAIVEKDFATFAKETMMDSNSFHATCLDSFPPIFYMNDTSKRIISWCHTINQFYGETIVAYTFDAGPNAVLYYLAENESKLFAFIYKLFGSVPGWDKKFTTEQLEAFNHQFESSNFTARELDLELQKDVARVILTQVGSGPQETNESLIDAKTGLPKE
B3: Herpetosiphon PMevDC: Herpetosiphon aurantiacus phosphomevalonate decarboxylase, SEQ ID NO: 16, Genbank YP_001544383 (protein, listed as Herpetosiphon aurantiacus)
chain: MKQLSHAATAVACANIAFIKYWGQHDSQLTLPTNGSISMNLDGCLTETTVQCLPEAVDDSVWLALSGGEEVQAKGRQFERVIQQIERLRQLAGVTERVEVRSRNNFPSDAGIASSAAAFAALTRAAASAFRLELDEAELSRLTRLSGSGSACRSIPAGFVEWYNDGTHAGSYAAQIAPPEHWNLVDIVAVISTEAKHVASTSGHSVATTSPYFSVRLEGIEQRLADVRQGILERDIERLGRASEADAMSMHVIAMTAQPSTMYWLPGTLAVMQAVQRWRAQDNLQSYWTIDAGPNVHVICEAKDAPEVEARLCELDAVQWTIVNGAGPEARLVG
B4: S378Pa3-2 PMevDC: phosphomevalonate decarboxylase isolated from a soil metagenomic library, SEQ ID NO: 18 (protein)
chain: MDYYYRVINNNEIPMKSPEFLEVSALAHPNIAFIKYWGNRDNDLRLPCNGSLSMNLSGLETKTSVQFDPSLSADQFKLSGKPIEWDALRRVSDFLEIVRDLAGISFFAKVESENSFPSGAGIASSASAFAALALAASKAAGLSLDEEALSRLARRGSGSACRSIPDGFVEWQAGSTDQDSFAWSIAPADHWDLVDLICVLNSEHKTVGSTGGHALASTSDLHLLRQERVEERIEICRKAILDRDFEHFASVVEEDSNLMHAVMRTSKPPLNYWLPETEVILWKVIHWRKKGIPVCSTVDAGPNVHVLTLSSEAEKVEALLKECPGVQSIFKARAGQGAQLI
modifications: Isolated from a metagenomic library constructed from soil samples

Key:
[1] = SDS-PAGE analysis of His-tagged and TEV protease cleaved PMevDCs and IPKs (solubility); assay type: physicochemical; settings: FIG. 9
Protocol: Strains MCM2257, MCM2258, MCM2259, MCM2260, MCM2261, and MCM2262 were inoculated in 1 liter of LB medium containing the appropriate antibiotic and incubated at 34° C. for 7 hours from overnight cultures grown at 34° C. in LB broth containing the appropriate antibiotic (Table 7). Cultures at an OD 0.5-0.7 were induced with 200 μM IPTG. After induction, cells were harvested by centrifugation at 10000×g for 10 minutes. After removal of the supernatant, the cell pellets were resuspended in 40 mL lysis buffer containing 50 mM KPO4, pH 8.0, 0.3 M NaCl, 0.02 mM imidizole, 1 mg/mL lysozyme, and 1 mg/mL DNAase. The cells were lysed using a french pressure cell at 14,000 psi and the cell lysate was centrifuged at 50,000×g for 1 hour. The supernatant was collected, passed over a Ni-affinity resin before the resin was washed with 10 column volumes of lysis buffer containing 50 mM imidazole. The protein was eluted with 5 column volumes of lysis buffer containing 250 mM imidizole. Collected fractions were concentrated and passed over PD-10 columns for buffer exchange and the final collected protein samples were >95% pure according to SDS-PAGE analysis. The purified samples were incubated with TEV protease overnight at 4° C. to remove histidine tags from the purified proteins. The digested samples were subsequently passed over Ni-affinity resin and the flow-through was collected and analyzed by SDS-PAGE.
H. aurantiacus PMevDC (lanes 2 and 3), H. aurantiacus IPK (lanes 4 and 5), and S378Pa3-2 PMevDC (lanes 6 and 7) were all soluble whether they were expressed with an attached His-tag or without a His-Tag (FIG. 9).

[2] = Kinetic characterization of decarboxylases (coupled spectrophotometric assay), diphosphomevalonate as substrate; assay type: biochemical; settings: 34° C., 5 mM ATP, 10-250 μM (R)-diphosphomevalonate; for kcat ± SD, Diphosphomevalonate: * using 1 mM substrate; for Km: read-out: KM ± SD, Diphosphomevalonate
Protocol: (§1) PMevDCs were incubated in the presence of mevalonate, phosphomevalonate, diphosphomevalonate, ATP, MgCl2 and the products of the reactions were confirmed by LC-MS. Mevalonate decarboxylase (MVD) from Saccharomyces cerevisiae was used as a reference. The catalytic activities of the decarboxylases were measured using a modified spectrophotometric assay that coupled ADP formation to pyruvate synthesis and reduction to lactate. The initial rate of disappearance of NADH was monitored at 340 nm on a SpectraMax M5 (Molecular Devices) to measure the reaction rate catalyzed by the PMevDCs. Samples for reaction rate studies contained 0.8 mM phosphoenolpyruvate, 0.05 mM DTT, 0.32 mM NADH, 10 mM MgCl2, 4 U lactate dehydrogenase, 4 U pyruvate kinase, 5 mM ATP and 10-250 μM (R)-phosphomevalonate or 10-250 μM (R)-diphosphomevalonate. All reactions were performed at 34° C. Reaction rate data was processed using Microsoft Excel and kinetic parameters were determined using Kaleidagraph.

[3] = Kinetic characterization of decarboxylases (coupled spectrophotometric assay), phosphomevalonate as substrate; assay type: biochemical; settings: 34° C., 5 mM ATP, 10-250 μM (R)-phosphomevalonate, * using 1 mM substrate
Protocol: as §1

[4] = In vitro metabolite measurement, substrate conversion by crude E. coli lysate, substrate MVA; assay type: biochemical; settings: crude extract from E. coli DH10b overexpressing S378Pa3-2
Protocol: (§2) In vitro assays were done with crude extracts from E. coli DH10b overexpressing pMCM2212. […] Negative control assays were done with extracts of E. coli harboring pTrcHis2b without insert. Substrates for in vitro conversions were mevalonate (MVA), mevalonate phosphate (MVP) also referred to as mevalonate 5-phosphate, mevalonate diphosphate (MVPP) also referred to as mevalonate 5-pyrophosphate, and isopentenyl phosphate (IP). Substrate conversion and product formation was analyzed by LC/MS.
(§3) Mass spectrometric analysis of metabolites was performed using a TSQ Quantim triple quadrupole instrument (Thermo Scientific). System control, data acquisition, and data analysis were done with XCalibur and LCQuan software (Thermo Scientific). About 10 μL samples were applied to a C18 Synergi MAX-RP HPLC column (150×2 mm, 4 uM, 80 A, Phenomenex) equipped with the manufacturer-recommended guard cartridge. The column was eluted with a gradient of 15 mM acetic acid+10 mM tributylamine in MilliQ-grade water (solvent A) and LCMS-grade methanol from Honeywell, Burdick & Jackson (solvent B). […] Concentrations of metabolites in cell extracts were determined based on calibration curves obtained by injection of commercial standards dissolved in 20% methanol/50 mM NH4Ac buffer (pH 7.0) to 0.5 ppm to 50 ppm final concentration. […]

[5] = In vitro metabolite measurement, substrate conversion by crude E. coli lysate, substrate MVP; assay type: biochemical; settings: crude extract from E. coli DH10b overexpressing S378Pa3-2
Protocol: as §2, §3

[6] = In vitro metabolite measurement, substrate conversion by crude E. coli lysate, substrate MVPP; assay type: biochemical; settings: crude extract from E. coli DH10b overexpressing S378Pa3-2
Protocol: as §2, §3

[7] = In vitro metabolite measurement, substrate conversion by crude E. coli lysate, substrate IP; assay type: biochemical; settings: crude extract from E. coli DH10b overexpressing S378Pa3-2
Protocol: as §2, §3

[8] = system: screening host V. 05; assay: Activity-based screening for PMevDC in MVA-auxotrophic screening host; assay type: cell-based, E. coli; settings: for growth / complementation of the lower MVA pathway in screening host in presence of MVA: 500 μM MVA
[9] = listed as Herpetosiphon aurantiacus ATCC 23779 PMevDC

Molecule	solubility of expressed enzyme with or without His-tag [1]	kcat ± SD, Diphosphomevalonate [2]	Km [2]	kcat ± SD, Phosphomevalonate [3]	kcat ± SD, Phosphomevalonate [3, 9]	kcat ± SD, Diphosphomevalonate [2, 9]	use of MVA as substrate [4]	activity of crude extract on MVP [5]	activity of crude extract on MVPP [6]	use of IP as substrate [7]	growth / complementation of the lower MVA pathway in screening host in presence of MVA [8]	growth / complementation of the lower MVA pathway in screening host in presence of MVA ([8]; listed as cds#2)	growth in presence of Fosmidomycin ([8]; Fosmidomycin 32 μg/ml, 500 μM MVA supplied)
B1	soluble												
B2		11.6 s⁻¹ and 11.6 ± 0.6 s⁻¹	44 µM										
B3	soluble	<0.02* s^−1		3.3 ± 0.2 s⁻¹	3.3 s⁻¹	less than 0.02 s^−1							
B4	soluble	1.09 s⁻¹ and 1.09 ± 0.09 s⁻¹	22 µM	2.9 s⁻¹ and 2.9 ± 0.5 s⁻¹			not used as substrates	activity on MVP	some activity on MVPP	not used as substrates	sustained growth	able to complement the lower MVA pathway	grew unrestricted

From US20160002672A1, “PRODUCTION OF ISOPRENE, ISOPRENOID, AND ISOPRENOID PRECURSORS USING AN ALTERNATIVE LOWER MEVALONATE PATHWAY” (DANISCO US INC., priority 2012, published 2016)
